Experimental data: US20040208867A1, “Protein having active sulfate transporter activity and method for detecting canceration of tissue” (NATIONAL INSTITUTE OF ADVANCED INDUSTRIAL SCIENCE AND …, priority 2002, published 2004)

What was measured:
[1] = substrate: Nc1ncnc2c1ncn2[C@@H]1O[C@H](COP(=O)(O)OS(=O)(=O)O)[C@@H](OP(=O)(O)O)[C@H]1O; test: cells, lysate or membranes; conditions: other: transport of PAPS (35S-labeled), P100 fraction, pH 7.5, PAPS concentration varied, FIG. 3, FIG. 4, 37.0 °C
[2] = transport activity of the P100 fraction for labeled nucleotide sugars instead of PAPS; type: biochemical, yeast strain W303a; conditions: labeled nucleotide sugars instead of 35S-labeled PAPS (FIG. 2)
Protocol: Five minutes thereafter, 10 volumes of an ice-cooled reaction terminating solution (20 mM Tris-HCl buffer (pH 7.5) containing 0.25 M sucrose, 5 mM MgCl2 and 150 mM KCl) was added thereto, and the mixture was filtered through a nitrocellulose filter of 0.45 μm in pore size. This filter was washed with 10 ml of the iced-cooled reaction terminating solution, and the radioactivity of this filter was measured using a liquid scintillation counter (FIG. 1). Respective fractions prepared using a transformant of a yeast strain W303a transformed with YER352 GAPII alone were used as negative controls.

B1: human STP3 (GenBank accession No. XM_059770), protein having active sulfate (PAPS) transport activity, SEQ ID NO:2 (Homo sapiens) (protein)
chain: MDARWWAVVVLAAFPSLGAGGETPEAPPESWTQLWFFRFVVNAAGYASFMVPGYLLVQYFRRKNYLETGRGLCFPLVKACVFGNEPKASDEVPLAPRTEAAETTPMWQALKLLFCATGLQVSYLTWGVLQERVMTRSYGATATSPGERFTDSQFLVLMNRVLALIVAGLSCVLCKQPRHGAPMYRYSFASLSNVLSSWCQYEALKFVSFPTQVLAKASKVIPVMLMGKLVSRRSYEHWEYLTATLISIGVSMFLLSSGPEPRSSPATTLSGLILLAGYIAFDSFTSNWQDALFAYKMSSVQMMFGVNFFSCLFTVGSLLEQGALLEGTRFMGRHSEFAAHALLLSICSACGQLFIFYTIGQFGAAVFTIIMTLRQAFAILLSCLLYGHTVTVVGGLGVAVVFAALLLRVYARGRLKQRGKKAVPVESPVQKV
[1]
  Km: 0.7 µM
[2]
  activity to specifically transport substances other than PAPS: substantially has no activity
